Source: patent publication US20240261333A1, “NOVEL TARGETS FOR ENHANCING ANTI-TUMOR IMMUNITY” (THE BROAD INSTITUTE, INC., priority 2021, published 2024)

Experiments:
PCMT1 = PCMT1 (UniProt P22061); assay: co-IP with anti-FLAG, mass spectrometry; C-FLAG B3GNT2
ATXN2L = ATXN2L (UniProt Q8WWM7); assay: as above
SERPINB12 = SERPINB12 (UniProt Q96P63); assay: as above
CSPG4 = CSPG4 (UniProt Q6UVK1); assay: co-IP, anti-FLAG, lysate of N-FLAG B3GNT2 cells, mass spectrometry
ALDOA = ALDOA (UniProt P04075); assay: as above
SERPINE2 = SERPINE2 (UniProt P07093); assay: as above
SERPINE2, sequence (P07093 20-398 limits assumed): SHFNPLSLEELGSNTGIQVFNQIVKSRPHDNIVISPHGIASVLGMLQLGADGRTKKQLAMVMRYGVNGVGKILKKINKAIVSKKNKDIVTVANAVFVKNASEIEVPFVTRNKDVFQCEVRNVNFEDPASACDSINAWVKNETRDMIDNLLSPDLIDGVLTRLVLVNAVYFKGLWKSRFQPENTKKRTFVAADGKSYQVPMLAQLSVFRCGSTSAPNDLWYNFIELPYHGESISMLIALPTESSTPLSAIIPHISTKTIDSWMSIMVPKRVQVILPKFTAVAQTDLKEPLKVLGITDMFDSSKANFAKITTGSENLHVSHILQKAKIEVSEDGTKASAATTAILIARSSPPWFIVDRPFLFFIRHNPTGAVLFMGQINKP

HSPA5 = HSPA5 (UniProt P11021); assay: as above
PRR4 = PRR4 (UniProt Q16378); assay: as above
SLC25A10 = SLC25A10 (UniProt Q9UBX3); assay: as above
SLC25A10, sequence (Q9UBX3 other isoform, or with tags, fused parts or gaps limits assumed): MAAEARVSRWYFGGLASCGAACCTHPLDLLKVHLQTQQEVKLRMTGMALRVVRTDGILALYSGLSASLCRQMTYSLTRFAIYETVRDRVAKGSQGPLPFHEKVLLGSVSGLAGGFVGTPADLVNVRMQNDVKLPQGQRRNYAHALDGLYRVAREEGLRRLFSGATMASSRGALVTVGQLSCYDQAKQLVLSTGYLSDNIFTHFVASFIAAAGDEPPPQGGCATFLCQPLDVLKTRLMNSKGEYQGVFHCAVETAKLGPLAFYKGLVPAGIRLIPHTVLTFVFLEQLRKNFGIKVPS

CNP = CNP (UniProt P09543); assay: as above
SMN1 = SMN1 (UniProt Q16637); assay: as above
SMN1, sequence (Q16637 other isoform, or with tags, fused parts or gaps limits assumed): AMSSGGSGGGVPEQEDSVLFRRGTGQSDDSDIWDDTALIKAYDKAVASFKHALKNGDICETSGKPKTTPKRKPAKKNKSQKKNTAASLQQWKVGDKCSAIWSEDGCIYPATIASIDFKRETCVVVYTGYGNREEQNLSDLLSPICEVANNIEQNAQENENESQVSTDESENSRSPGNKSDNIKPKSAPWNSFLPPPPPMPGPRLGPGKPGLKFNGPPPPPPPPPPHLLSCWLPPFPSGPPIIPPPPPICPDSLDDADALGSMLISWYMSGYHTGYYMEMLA

RPL29 = RPL29 (UniProt P47914); assay: as above
PSMA4 = PSMA4 (UniProt P25789); assay: as above
PSMA4, sequence (P25789 whole entry): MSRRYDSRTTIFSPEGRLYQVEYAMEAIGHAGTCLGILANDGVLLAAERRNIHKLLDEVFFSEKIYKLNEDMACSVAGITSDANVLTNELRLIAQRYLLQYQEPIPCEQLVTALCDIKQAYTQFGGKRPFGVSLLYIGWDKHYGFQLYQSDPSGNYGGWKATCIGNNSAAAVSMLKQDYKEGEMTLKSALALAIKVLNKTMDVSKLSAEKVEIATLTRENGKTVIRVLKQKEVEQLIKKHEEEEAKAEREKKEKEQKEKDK

CALM2 = CALM2 (UniProt P0DP24); assay: as above
PSMA1 = PSMA1 (UniProt P25786); assay: as above
DPM1 = DPM1 (UniProt O60762); assay: as above
SRSF7 = SRSF7 (UniProt Q16629); assay: as above
SEC16A = SEC16A (UniProt O15027); assay: as above
SEC16A, sequence (O15027 other isoform, or with tags, fused parts or gaps limits assumed): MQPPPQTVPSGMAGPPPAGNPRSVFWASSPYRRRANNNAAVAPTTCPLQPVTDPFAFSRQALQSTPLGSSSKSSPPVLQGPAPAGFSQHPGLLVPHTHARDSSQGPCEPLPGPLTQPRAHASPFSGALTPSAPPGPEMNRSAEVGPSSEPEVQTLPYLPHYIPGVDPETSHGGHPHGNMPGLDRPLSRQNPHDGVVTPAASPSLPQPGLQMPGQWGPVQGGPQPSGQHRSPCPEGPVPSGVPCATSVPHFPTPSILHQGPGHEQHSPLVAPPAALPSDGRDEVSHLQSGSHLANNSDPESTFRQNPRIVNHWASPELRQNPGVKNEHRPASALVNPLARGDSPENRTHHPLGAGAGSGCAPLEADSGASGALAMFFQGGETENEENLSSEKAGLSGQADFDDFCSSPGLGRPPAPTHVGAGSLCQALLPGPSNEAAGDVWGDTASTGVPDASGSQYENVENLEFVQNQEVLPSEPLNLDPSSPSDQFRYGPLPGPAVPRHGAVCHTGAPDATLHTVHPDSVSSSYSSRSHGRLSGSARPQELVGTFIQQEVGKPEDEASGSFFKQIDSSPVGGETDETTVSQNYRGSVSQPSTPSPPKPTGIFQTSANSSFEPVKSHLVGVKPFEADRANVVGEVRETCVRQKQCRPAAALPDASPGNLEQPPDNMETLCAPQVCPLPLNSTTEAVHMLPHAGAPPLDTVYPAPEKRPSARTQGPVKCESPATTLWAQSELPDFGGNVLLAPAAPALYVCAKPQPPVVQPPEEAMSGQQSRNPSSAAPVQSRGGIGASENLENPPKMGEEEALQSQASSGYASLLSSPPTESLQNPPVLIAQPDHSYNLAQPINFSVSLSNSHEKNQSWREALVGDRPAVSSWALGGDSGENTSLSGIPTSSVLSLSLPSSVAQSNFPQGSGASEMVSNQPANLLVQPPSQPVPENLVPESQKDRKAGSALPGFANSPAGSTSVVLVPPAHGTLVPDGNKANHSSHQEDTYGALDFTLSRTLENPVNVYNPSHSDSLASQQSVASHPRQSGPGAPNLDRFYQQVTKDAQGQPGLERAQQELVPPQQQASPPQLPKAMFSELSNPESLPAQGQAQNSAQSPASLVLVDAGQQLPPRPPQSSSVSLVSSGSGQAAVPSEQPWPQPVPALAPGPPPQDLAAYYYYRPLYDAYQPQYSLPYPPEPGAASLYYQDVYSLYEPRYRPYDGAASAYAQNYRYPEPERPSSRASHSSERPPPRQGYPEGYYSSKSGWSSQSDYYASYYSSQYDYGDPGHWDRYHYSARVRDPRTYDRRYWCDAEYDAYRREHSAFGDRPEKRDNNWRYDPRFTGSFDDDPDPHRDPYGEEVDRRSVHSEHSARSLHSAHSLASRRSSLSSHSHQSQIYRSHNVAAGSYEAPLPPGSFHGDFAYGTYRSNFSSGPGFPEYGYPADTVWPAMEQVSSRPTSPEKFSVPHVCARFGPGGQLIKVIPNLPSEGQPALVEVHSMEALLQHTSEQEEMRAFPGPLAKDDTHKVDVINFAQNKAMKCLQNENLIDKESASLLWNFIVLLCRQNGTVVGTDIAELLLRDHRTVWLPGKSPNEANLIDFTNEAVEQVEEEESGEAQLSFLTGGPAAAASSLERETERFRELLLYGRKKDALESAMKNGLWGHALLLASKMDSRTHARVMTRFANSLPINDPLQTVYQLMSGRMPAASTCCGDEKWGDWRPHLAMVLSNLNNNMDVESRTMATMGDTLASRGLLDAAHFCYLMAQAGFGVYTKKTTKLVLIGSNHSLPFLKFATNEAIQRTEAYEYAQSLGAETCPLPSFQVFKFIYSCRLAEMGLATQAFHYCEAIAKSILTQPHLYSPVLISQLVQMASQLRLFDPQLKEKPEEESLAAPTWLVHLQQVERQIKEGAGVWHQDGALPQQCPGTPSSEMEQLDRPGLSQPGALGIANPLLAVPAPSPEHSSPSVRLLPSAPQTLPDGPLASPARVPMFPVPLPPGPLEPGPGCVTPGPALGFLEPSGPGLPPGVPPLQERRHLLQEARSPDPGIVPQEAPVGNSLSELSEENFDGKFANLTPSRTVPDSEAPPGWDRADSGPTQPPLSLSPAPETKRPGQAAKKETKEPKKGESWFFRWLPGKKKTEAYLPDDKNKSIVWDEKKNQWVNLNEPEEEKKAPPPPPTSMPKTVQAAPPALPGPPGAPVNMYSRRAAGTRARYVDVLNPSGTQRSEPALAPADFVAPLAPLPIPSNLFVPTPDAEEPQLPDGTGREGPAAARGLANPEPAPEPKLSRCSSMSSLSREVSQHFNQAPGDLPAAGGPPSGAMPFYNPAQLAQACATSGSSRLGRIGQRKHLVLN

LRPPRC = LRPPRC (UniProt P42704); assay: as above
HSPH1 = HSPH1 (UniProt Q92598); assay: as above
TRIM28 = TRIM28 (UniProt Q13263); assay: as above
LOXL4 = LOXL4 (UniProt Q96JB6); assay: as above
RAB1B = RAB1B (UniProt Q9H0U4); assay: as above
SLC25A3 = SLC25A3 (UniProt Q00325); assay: as above
OS9 = OS9 (UniProt Q13438); assay: as above
SLC25A1 = SLC25A1 (UniProt P53007); assay: as above
RPL18A = RPL18A (UniProt Q02543); assay: as above
ERP29 (human) = ERP29 (human) (UniProt P30040); assay: anti-FLAG co-IP from lysate of N-FLAG B3GNT2 cells, mass spectrometry
LARP4 (human) = LARP4 (human) (UniProt Q71RC2); assay: as above
FBXO6 (human) = FBXO6 (human) (UniProt Q9NRD1); assay: as above
EEF2 (human) = EEF2 (human) (UniProt P13639); assay: as above
PSMC2 (human) = PSMC2 (human) (UniProt P35998); assay: as above
PGAM5 (human) = PGAM5 (human) (UniProt Q96HS1); assay: as above
PGAM5 (human), sequence (Q96HS1 whole entry): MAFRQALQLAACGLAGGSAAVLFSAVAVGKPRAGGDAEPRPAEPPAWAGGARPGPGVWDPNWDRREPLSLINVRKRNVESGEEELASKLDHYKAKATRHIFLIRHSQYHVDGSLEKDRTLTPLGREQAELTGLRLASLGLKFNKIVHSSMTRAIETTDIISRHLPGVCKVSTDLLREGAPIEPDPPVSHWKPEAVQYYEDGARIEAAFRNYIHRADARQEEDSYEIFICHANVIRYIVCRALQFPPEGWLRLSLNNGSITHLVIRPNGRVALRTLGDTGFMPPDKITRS

PSMB4 (human) = PSMB4 (human) (UniProt P28070); assay: as above
PSMB4 (human), sequence (P28070 46-264 limits assumed): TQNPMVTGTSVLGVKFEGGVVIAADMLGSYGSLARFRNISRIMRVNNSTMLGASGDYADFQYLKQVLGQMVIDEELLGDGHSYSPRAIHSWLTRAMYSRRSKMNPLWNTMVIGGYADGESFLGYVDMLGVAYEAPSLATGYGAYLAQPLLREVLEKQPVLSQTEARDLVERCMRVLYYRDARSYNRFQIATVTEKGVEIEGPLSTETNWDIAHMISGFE

RPL15 (human) = RPL15 (human) (UniProt P61313); assay: as above
TUBA1C (human) = TUBA1C (human) (UniProt Q9BQE3); assay: as above
STAU1 (human) = STAU1 (human) (UniProt O95793); assay: as above
STAU1 (human), sequence (O95793 other isoform, or with tags, fused parts or gaps limits assumed): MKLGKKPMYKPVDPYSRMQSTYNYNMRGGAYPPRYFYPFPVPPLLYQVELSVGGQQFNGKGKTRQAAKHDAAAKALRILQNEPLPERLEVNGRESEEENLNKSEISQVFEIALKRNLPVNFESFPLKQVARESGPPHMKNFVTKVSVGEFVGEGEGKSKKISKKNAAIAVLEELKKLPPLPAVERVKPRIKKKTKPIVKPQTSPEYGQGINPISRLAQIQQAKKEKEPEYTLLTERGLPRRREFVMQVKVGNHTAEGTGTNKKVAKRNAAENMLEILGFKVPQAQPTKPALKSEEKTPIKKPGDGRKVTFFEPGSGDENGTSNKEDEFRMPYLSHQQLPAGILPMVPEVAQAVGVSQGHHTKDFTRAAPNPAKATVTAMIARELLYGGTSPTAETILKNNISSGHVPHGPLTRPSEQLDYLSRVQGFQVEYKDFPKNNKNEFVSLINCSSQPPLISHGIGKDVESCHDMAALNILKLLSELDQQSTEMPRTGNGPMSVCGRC

ZRANB2 (human) = ZRANB2 (human) (UniProt O95218); assay: as above
CASC3 (human) = CASC3 (human) (UniProt O15234); assay: co-IP with mouse anti-FLAG from lysate of cells overexpressing N-FLAG B3GNT2, then mass spectrometry

SERPINB12, sequence (Q96P63 other isoform, or with tags, fused parts or gaps limits assumed): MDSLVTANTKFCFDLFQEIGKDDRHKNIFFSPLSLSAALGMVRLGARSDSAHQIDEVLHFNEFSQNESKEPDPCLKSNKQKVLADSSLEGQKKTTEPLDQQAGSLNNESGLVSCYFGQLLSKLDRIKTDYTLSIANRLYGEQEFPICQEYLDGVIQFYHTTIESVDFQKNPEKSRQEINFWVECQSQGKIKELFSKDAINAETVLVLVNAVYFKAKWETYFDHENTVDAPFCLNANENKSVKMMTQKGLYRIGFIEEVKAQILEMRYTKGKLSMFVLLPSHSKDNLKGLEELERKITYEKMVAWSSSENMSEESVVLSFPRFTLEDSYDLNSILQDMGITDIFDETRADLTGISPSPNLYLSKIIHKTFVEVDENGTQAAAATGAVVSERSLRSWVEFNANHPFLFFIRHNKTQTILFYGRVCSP

C-terminal FLAG tagged B3GNT2 (from UniProt Q9NY97 1-397) (enzyme)
co-IP mass spectrometry count (PCMT1): 2 | co-IP mass spectrometry count (ATXN2L): 5 | co-IP mass spectrometry count (SERPINB12): 2

N-terminal FLAG tagged B3GNT2 (from UniProt Q9NY97 1-397) (enzyme)
co-IP/MS count (CSPG4): 2 | co-IP/MS count (ALDOA): 2 | co-IP/MS count (SERPINE2): 4 | co-IP/MS count (HSPA5): 70 | co-IP/MS count (PRR4): 2 | co-IP/MS count (SLC25A10): 5 | co-IP/MS count (CNP): 5 | co-IP/MS count (SMN1): 10 | co-IP/MS count (RPL29): 4 | co-IP/MS count (PSMA4): 2 | co-IP/MS count (CALM2): 0 | co-IP/MS count (PSMA1): 2 | co-IP/MS count (DPM1): 4 | co-IP/MS count (SRSF7): 2 | co-IP/MS count (SEC16A): 2 | co-IP/MS count (LRPPRC): 2 | co-IP/MS count (HSPH1): 8 | co-IP/MS count (TRIM28): 4 | co-IP/MS count (LOXL4): 5 | co-IP/MS count (RAB1B): 0 | co-IP/MS count (SLC25A3): 4 | co-IP/MS count (OS9): 3 | co-IP/MS count (SLC25A1): 5 | co-IP/MS count (RPL18A): 3 | co-IP mass spectrometry count (ERP29 (human)): 2 | co-IP mass spectrometry count (LARP4 (human)): 0 | co-IP mass spectrometry count (FBXO6 (human)): 4 | co-IP mass spectrometry count (EEF2 (human)): 3 | co-IP mass spectrometry count (PSMC2 (human)): 2 | co-IP mass spectrometry count (PGAM5 (human)): 4 | co-IP mass spectrometry count (PSMB4 (human)): 2 | co-IP mass spectrometry count (RPL15 (human)): 6 | co-IP mass spectrometry count (TUBA1C (human)): 76 | co-IP mass spectrometry count (STAU1 (human)): 2 | co-IP mass spectrometry count (ZRANB2 (human)): 5 | co-IP mass spectrometry count (N-term FLAG) (CASC3 (human)): 3
